Measured values as given in CN111690066A (NANJING RONGJIEKANG BIOTECHNOLOGY CO LTD, dated 2020).

T1: 自产IL-4Rα重组蛋白 (in-house human recombinant IL-4Rα, residues 26-232 of NP_000409.1, expressed in 293F cells) (human, UniProt P24394 26-232)
T1 construct: range 26-232; Cloned into pcDNA3.4 and expressed in 293F cells; The construct itself is defined on NP_000409.1; also called RJK; 人源重组IL-4Rα蛋白
T1 sequence (looked up): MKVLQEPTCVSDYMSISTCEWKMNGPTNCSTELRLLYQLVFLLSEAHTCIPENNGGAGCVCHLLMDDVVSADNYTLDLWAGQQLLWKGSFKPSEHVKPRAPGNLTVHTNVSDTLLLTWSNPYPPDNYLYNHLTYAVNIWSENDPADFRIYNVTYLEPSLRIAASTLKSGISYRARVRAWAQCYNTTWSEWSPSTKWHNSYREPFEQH


How the values were obtained:
[1] = target: T1, 自产IL-4Rα重组蛋白 (in-house human …); experiment: binding ELISA of purified VHH on IL-4Rα recombinant protein
[2] = target: T1, 自产IL-4Rα重组蛋白 (in-house human …); experiment: BLI (Octet RED96), IL-4Rα loaded on the sensor, antibody in solution from 100 nM in 2-fold dilutions

| EC50 [1] | Kd [2] | koff [2] | kon [2] | Binder |
| --- | --- | --- | --- | --- |
| 2.72 nM | – | – | – | 单域抗体 1A9 (VHH) VHH 1: QVPLQQSGPELVKPGASVKISCKASGYAFSSSWMNWVKQRPGKGLEWIGRIYPGDGDTKYNGKFKGKATLTADKSSSTAYMQLSSLTSEDSAVYFCARDDYDEASWGQGTLVTVSA VHH 2: DIVMTQSQKFMSTSVGDRVSITCKASQNVRSAVAWYQQKPGQSPKSLIYLASNRHTGVPDRFTGSGSGTDFTLTISNVQSEDLADYFCLQHWNYPFTFGSGTKLEIK |
| 2.13 nM | 0.239 nM | 0.000133 s⁻¹ | 556000 M⁻¹ s⁻¹ | 单域抗体 4E9 (VHH) VHH: QVQLVESGGGSVQAGGSLRLSCAASGDFYCMAWFRQAPGKEREGVATIRSGGRSTYYADSVKGRFTISKDNAKDTLYLQMNSLKPEDTAMYYCAVGVDGNCRNYWGQGTQVTVSS |
